The target of test [1] is T1, human PDGF-BB (human, UniProt P01127 82-190). The test is described as follows: cell-based or functional assay.
Test [2] concerns the target T2, human ANG2-RBD-mouse Fc-region fusion (human, UniProt O15123 275-496, limits assumed).
T2 sequence (looked up): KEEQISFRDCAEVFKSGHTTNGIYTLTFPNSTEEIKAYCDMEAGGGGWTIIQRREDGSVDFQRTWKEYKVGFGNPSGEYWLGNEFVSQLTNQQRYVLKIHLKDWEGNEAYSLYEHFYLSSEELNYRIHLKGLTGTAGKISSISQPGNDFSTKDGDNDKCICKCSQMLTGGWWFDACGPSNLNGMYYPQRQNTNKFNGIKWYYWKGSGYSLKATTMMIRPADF
Description: cell-based or functional assay.

Test [3] concerns the target T1, human PDGF-BB. Description: cell-based or functional assay. This is another data set of the same source.
In test [4] the target is T1, human PDGF-BB. Description: cell-based or functional assay. The source holds these as a separate data set.
Test [5] deals with T1, human PDGF-BB. The test is described as follows: SPR, on immobilized human PDGF-BB (Example 32). Details: t½: unit not given here. In general terms: SPR reads the build-up and loss of mass on a sensor chip optically.
Test [6] addresses T1, human PDGF-BB. The test is described as follows: cell-based or functional assay. This is another data set of the same source.

Where two headings read alike, the source gives them in different places.

A word on the Kd: it is the constant that tells how readily two partners part at equilibrium. Usually koff stands for the rate constant with which the complex falls apart. In general, kon refers to the rate constant with which the complex forms.

T1 sequence (P01127 82-190 limits assumed): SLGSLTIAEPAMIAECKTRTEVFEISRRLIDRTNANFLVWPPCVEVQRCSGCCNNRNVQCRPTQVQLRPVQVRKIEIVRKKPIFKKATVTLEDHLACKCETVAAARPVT

B1: antibody 0086 (antibody, V domains shown)
VH: EVQLVESGGGLVQPGGSLRLSCAASGFTFSSYWMSWVRQAPEKGLEWVSTISDGGGLTYYADSVKGRFTISRDNAKNSLYLQMNSLRAEDTAVYYCAESGGYTDWLFGYWGQGTLVTVSS
VL: not shown
Consider B1, for which, in the test with human PDGF-BB [1], the “Balb-C3T3 Proliferation % neutralization” value worked out at 100%, the “Balb-C3T3 Proliferation IC50” value worked out at 0.11 nM, the “Pericytes Migration % neutralization” value was found to be 100% and the “Pericytes Migration IC50” value worked out at 0.09 nM. Further, in the test with human PDGF-BB [1], the “Pericytes Proliferation % neutralization” value was 100% and the “Pericytes Proliferation IC50” value is 0.09 nM.

B2: antibody 0085 (antibody, V domains shown)
VH: EVQLVESGGGLVQPGGSLRLSCAASGFTFSSYWMSWVRQAPEKGLEWVSTISDGGGLTYYADSVKGRFTISRDNAKNSLYLQMNSLRAEDTAVYYCAESGGYTDWLFGYWGQGTLVTVSS
VL: not shown
Turning to B2, in the test with human PDGF-BB [1], the “Balb-C3T3 Proliferation % neutralization” value was found to be 100%, the “Balb-C3T3 Proliferation IC50” value came to 0.06 nM, the “Pericytes Migration % neutralization” value turned out to be 90% and the “Pericytes Migration IC50” value amounted to 0.15 nM. Moreover, in the test with human PDGF-BB [1], the “Pericytes Proliferation % neutralization” value was 100% and the “Pericytes Proliferation IC50” value stood at 0.11 nM.

B3: antibody 0144 (bispecific anti-ANG2/PDGF-B CrossMab antibody) (bispecific antibody, human IgG1, kappa, L234A L235A)
heavy 1: SYVLTQPPSVSVAPGQTARITCGGNNIGSKSVHWYQQKPGQAPVLVVYDTSDRPSGIPERFSGSNSGNTATLTISRVEAGDEADYYCQVWDSSSDHWVFGGGTKLTVLSSASTKGPSVFPLAPSSKSTSGGTAALGCLVKDYFPEPVTVSWNSGALTSGVHTFPAVLQSSGLYSLSSVVTVPSSSLGTQTYICNVNHKPSNTKVDKKVEPKSCDKTHTCPPCPAPEAAGGPSVFLFPPKPKDTLMASRTPEVTCVVVDVSHEDPEVKFNWYVDGVEVHNAKTKPREEQYNSTYRVVSVLTVLAQDWLNGKEYKCKVSNKALGAPIEKTISKAKGQPREPQVYTLPPCRDELTKNQVSLWCLVKGFYPSDIAVEWESNGQPENNYKTTPPVLDSDGSFFLYSKLTVDKSRWQQGNVFSCSVMHEALHNAYTQKSLSLSPGK
heavy 2: not shown
light 1: not shown
light 2: not shown
Regarding B3, the “ANG2 specific pTie2-ELISA” value in test [2] was 6 fold.

B4: mumAb (murine anti-human PDGF-B antibody) (antibody, V domains shown)
VH: QVQLQQSGAELMKPGASVKISCKATGYTFSSYWIEWVKQRPGHGLEWIGEILPGSGSTNYNEKFKVKATFTADTSSNTAYMQLSSLTSEDSAVYYCAQTTQDFDSWGQGTTLTVSS
VL: DIVLTQSPGSLAVSLGQRATISCRASESVDIYGYSFMHWYQQKPGQPPKLLIYRASNLESGIPARFSGSGSRTDFTLTINPVEADDVATYYCQQSNEDPRTFGGGTKLEIK
With B4, in the test with human PDGF-BB [3], the “Balb-C3T3 Proliferation IC50” value came to 0.179 nM, the “Pericytes Migration IC50” value was found to be 0.08 nM and the “Pericytes Proliferation IC50” value was 0.21 nM.

B5: antibody 0117 (bispecific anti-VEGF/PDGF-B CrossMab antibody) (bispecific antibody, human IgG1, kappa, L234A L235A)
chain 1: DIQLTQSPSSLSASVGDRVTITCSASQDISNYLNWYQQKPGKAPKVLIYFTSSLHSGVPSRFSGSGSGTDFTLTISSLQPEDFATYYCQQYSTVPWTFGQGTKVEIKSSASTKGPSVFPLAPSSKSTSGGTAALGCLVKDYFPEPVTVSWNSGALTSGVHTFPAVLQSSGLYSLSSVVTVPSSSLGTQTYICNVNHKPSNTKVDKKVEPKSCDKTHTCPPCPAPEAAGGPSVFLFPPKPKDTLMASRTPEVTCVVVDVSHEDPEVKFNWYVDGVEVHNAKTKPREEQYNSTYRVVSVLTVLAQDWLNGKEYKCKVSNKALGAPIEKTISKAKGQPREPQVYTLPPCRDELTKNQVSLWCLVKGFYPSDIAVEWESNGQPENNYKTTPPVLDSDGSFFLYSKLTVDKSRWQQGNVFSCSVMHEALHNAYTQKSLSLSPGK
chain 2: not shown
chain 3: EVQLVESGGGLVQPGGSLRLSCAASGYDFTHYGMNWVRQAPGKGLEWVGWINTYTGEPTYAADFKRRFTFSLDTSKSTAYLQMNSLRAEDTAVYYCAKYPYYYGTSHWYFDVWGQGTLVTVSSASVAAPSVFIFPPSDEQLKSGTASVVCLLNNFYPREAKVQWKVDNALQSGNSQESVTEQDSKDSTYSLSSTLTLSKADYEKHKVYACEVTHQGLSSPVTKSFNRGEC
chain 4: not shown
notes: also called anti-PDGFB/VEGF antibody
Take B5: in the test with human PDGF-BB [4], the “IC50 Migration-Inhibition human pericytes” value was 0.06 nM and the “IC50 Phospho-Inhibition human pericytes” value came out at 0.055 nM. Also, in the test with human PDGF-BB [5], the dissociation constant (Kd) was 3 nM, the koff was 0.000245 s⁻¹, the on-rate constant (kon) is 76700 M⁻¹ s⁻¹ and the t½ was found to be 47. In the test with human PDGF-BB [6], the “IC50 Proliferation 3T3” value turned out to be 0.019 nM and the “IC50 Proliferation human pericytes” value stood at 0.016 nM.
